The values that follow come from the nanobody polyreactivity screen of Harvey et al. (2022).

This data set is described as follows: yeast display, Sf9 membrane polyspecificity reagent, FACS + sequencing; frameworks hold sequencing errors. The method, boiled down:
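Galactose induction of a Saccharomyces cerevisiae BJ5465 synthetic nanobody display library ran 36–48 hours. The cells were then stained for 1 hour at 4 °C with 10% biotinylated, detergent-solubilized Sf9 membrane reagent, pulled down on streptavidin microbeads and FACS-sorted into low and high (top ~1%) gates on expression and reagent-binding fluorescence. Labels for polyreactivity follow the gate of origin.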
Take “QVQLVESGGGLVQAGGSLRLSCAASGIIFGVNVMGWYRQAPGKERELVATITWRGDSTYYADSVKGRFTISRDNAKNTVYLQMNSLKPEDTAVYYCAVLRSWWYRYDYWGQGTQVTVSS”: the “polyreactivity (PSR sort gate)” value is “low polyreactivity”.

As to “QVQLVESGGGLVQAGGSLRLSCAASGIIFGWYAMGWYRQAPGKERELVAAISYSGGSTYYADSVKGRFTISRDNAKNTVYLQMNSLKPEDTAVYYCAVQRYWGQGTQVTVSS”, the “polyreactivity (PSR sort gate)” value is recorded as “high polyreactivity”.

Turning to “QVQLVESGGGLVQAGGSLRLSCAASGIIFGWYAMGWYRQAPGKERELVAAITWSGASTYYADSVKGRFTISRDNAKNTVYLQMNSLKPEDTAVYYCAAESVDNIYYGFDYWGQGTQVTVSS”, the “polyreactivity (PSR sort gate)” value is on record as “high polyreactivity”.

For “QVQLVESGGGLVQAGGSLRLSCAASGIIFGYSAMGWYRQAPGKERELVAAITRSGSSTYYADSVKGRFTISRDNAKNTVYLQMNSLKPEDTAVYYCAADNFYQSYGYWGQGTQVTVSS”, the “polyreactivity (PSR sort gate)” value is reported as “low polyreactivity”.

For “QVQLVESGGGLVQAGGSLRLSCAASGIIFGYYAMGWYRQAPGKVRELVAAISWSGGSTYYADSVKGRFTFSRDNAKNTVYLQMNSLKPEDTAVYYCNAVYVSYTYQQTRSGGYDYWGQGTQVTVSS”, the “polyreactivity (PSR sort gate)” value is “high polyreactivity”.

Regarding “QVQLVESGGGLVQAGGSLRLSCAASGIIFHLYTMGWYRQAPGKERELVAAISNNGGRTYYADSVKGRFTISRDNAKNTVYLQMNSLKPEDTAVYYCAKYLSPGERHSYDYWGQGTQVTVSS”, the “polyreactivity (PSR sort gate)” value is recorded as “high polyreactivity”.

For “QVQLVESGGGLVQAGGSLRLSCAASGIIFINYVMGWYRQAPGKESELVAAITGSGSSTYYADSVKGRFTISRDNAKNTVYLQMNSLKPEDTAVYYCAADNPRVRFLYYYWGQGTQVTVSS”, the “polyreactivity (PSR sort gate)” value was “high polyreactivity”.

For “QVQLVESGGGLVQAGGSLRLSCAASGIIFISYVMGWYRQAPGKERELVAAITRSGDSTYYADSVKGRFTISRDNAKNTVYVQMNSLKPEDTAVYYCAAEHAYSYWDYDYWGQGTQVTVSS”, the “polyreactivity (PSR sort gate)” value is “high polyreactivity”.

As for “QVQLVESGGGLVQAGGSLRLSCAASGIIFKLYAMGWYRQAPGKEREFVATITKTGGRTYYEDSVKGRFTISRDNAKNTVYLQMNSLKPEDTAVYYCAARRVNGKMYYWGQGTQVTVSS”, the “polyreactivity (PSR sort gate)” value is listed as “high polyreactivity”.

As to “QVQLVESGGGLVQAGGSLRLSCAASGIIFKRYAMGWYRQAPGKDRELVAAISSRAGRTYYADSVKGRFTISRDNAKNNVYLQLNSLKPEDTAVYYCNTGLVYGYDYWGQGTQVTVSS”, the “polyreactivity (PSR sort gate)” value is on record as “high polyreactivity”.

Regarding “QVQLVESGGGLVQAGGSLRLSCAASGIIFKSNAMGWSRQAPGKERELVAAIRSSGSTNYADSVKGRFTISRDNAKNTVYLQLNSLKPEDTAVYYCAVSSWSVWGHYYWGQGTQVTVSS”, the “polyreactivity (PSR sort gate)” value is listed as “high polyreactivity”.

Take “QVQLVESGGGLVQAGGSLRLSCAASGIIFKYNAMGWSRQAPGKERELVAAITSGGSTYYADSVKGRFTISRDNAKNTVYLQRNSLKPEDTAVYYCAARYTYVKNFFRRLTAYYYWGQGTQVTVSS”: the “polyreactivity (PSR sort gate)” value is “high polyreactivity”.

In the case of “QVQLVESGGGLVQAGGSLRLSCAASGIIFKYNVMGWYTQAPGKERELVAAITDSGTSTFYADSVKGRFTISRDNAKNTVSLQMNSLKPEDTAFYYCAADEFSVFTIETYGYDYWGQGTQVTVSS”, the “polyreactivity (PSR sort gate)” value is reported as “low polyreactivity”.

With “QVQLVESGGGLVQAGGSLRLSCAASGIIFLWYAMGWYRQAPGKERELVAAISRTGSSTYYADSVKGRFTISRDNAKNTVYFQMNSLKPEDTAVYYCAAAYYSKRSWRFDYWGQGTQVTVSS”, the “polyreactivity (PSR sort gate)” value is “high polyreactivity”.

For the sequence “QVQLVESGGGLVQAGGSLRLSCAASGIIFNDYAMGWYRQAPGKERELVATISWSGGSTYADSVKGRFTISRDNAKNTVYLQMNSLKPEDTAVYYCAAVPRRSYGGYPYYYWGQGTQVTVSS”, the “polyreactivity (PSR sort gate)” value is “low polyreactivity”.

As for “QVQLVESGGGLVQAGGSLRLSCAASGIIFNGYAMGWYRQAPGKERELVAAISSSGGRTYYADSVKGRFTISRDNAKNTVYLQMNSLKPEDTAVYYCAADAAGSRVYPYDYWGQGTQVTVSS”, the “polyreactivity (PSR sort gate)” value is “high polyreactivity”.

Turning to “QVQLVESGGGLVQAGGSLRLSCAASGIIFPFYAMGWYRKAPGKERELVAAITSDGNTNYADSVKGRFTISRDNAKNTVYLQMNSLKPEDTAVYYCNAETQYGVLSWHSTRHEYWGQGTQVTVSS”, the “polyreactivity (PSR sort gate)” value is “low polyreactivity”.

With “QVQLVESGGGLVQAGGSLRLSCAASGIIFPFYAMGWYRQAPGKERELVAAITSGGDTYYADSVKGRFTISRDNAKNTVYLQMNSLKPEDTAVYYCAAVYRRQYGYWGQGTQVTVSS”, the “polyreactivity (PSR sort gate)” value was “high polyreactivity”.

With “QVQLVESGGGLVQAGGSLRLSCAASGIIFPPYTMGWYRQAPGKERELVAAINTRGSRTYYADSVKGRFTISRDNAKNTVYLQMNSLKPEDTAVYYCAADVWWSTTYDYWGQGTQVTVSS”, the “polyreactivity (PSR sort gate)” value is “high polyreactivity”.

For “QVQLVESGGGLVQAGGSLRLSCAASGIIFPRYALGWYRQAPGKERELVAAITIGGRTNYADSVKGRFTISRDNAKNTVYLQMNSLKPEDPAVYYGAAQTYVPYYEYDYWGQGTQVTVSS”, the “polyreactivity (PSR sort gate)” value is “low polyreactivity”.

As to “QVQLVESGGGLVQAGGSLRLSCAASGIIFPSYVMGWYRQAPGKERELVAAISSRGTSTYYADSVKGRFTISRDHAKNTVYLQMNSLKPEDTAVYYCAAKSFGTTTRSEYDYWGQGTQVTVSS”, the “polyreactivity (PSR sort gate)” value is given as “high polyreactivity”.

As to “QVQLVESGGGLVQAGGSLRLSCAASGIIFPTYAMGWYRQAPGKERELVAAISVSGGTTSYADSVKGRFTISRDNAKNTVYLQMNSLKPEDTAVYYCAKRPFSTRYDYWGQGTQVTVSS”, the “polyreactivity (PSR sort gate)” value is recorded as “high polyreactivity”.

As to “QVQLVESGGGLVQAGGSLRLSCAASGIIFPVYAMGWYRQAPGKERELVAAISNRAGSTYYADSVKGRFTISRDNAKNSVYLQMNSLKPEDTAVYYCAAASRRSGASSWYDYWGQGTQVTVSS”, the “polyreactivity (PSR sort gate)” value is “high polyreactivity”.

For the sequence “QVQLVESGGGLVQAGGSLRLSCAASGIIFPWYAMGWYRPAPGKERELVAAISGSGGSTYYADSVKGRFTISRDNAKNTVYLQMNSLKPEDTAVYYCAAYPRGSQRYNYGGQGTQVTVSS”, the “polyreactivity (PSR sort gate)” value was “high polyreactivity”.

“QVQLVESGGGLVQAGGSLRLSCAASGIIFPYNAMGWYRQAPGKERELVAAITGGGSTYYADSVKGRFTISRDNAKNTVYLQMNSLKPEDTAVYYCAADRSGPGYDYWGQGTQVTVSS”: the “polyreactivity (PSR sort gate)” value is listed as “low polyreactivity”.

As to “QVQLVESGGGLVQAGGSLRLSCAASGIIFPYYAMGWYREAPGIERELVAGLDSSGSSTNYADSVKGRFTISRDTAKTTVYLQITSLQPEDTAVYYCAKVTSSGDAVLTQIPYGYDYWGQGTQVTVSS”, the “polyreactivity (PSR sort gate)” value is on record as “low polyreactivity”.

As for “QVQLVESGGGLVQAGGSLRLSCAASGIIFPYYSMGWYRQAPGKERELVAAITSSGGSTYYADSVKGRFTISRDNAKNTVYLQMNSLKPEDTAVYYCAAQTWGHGGDSWGQGTQVTVSS”, the “polyreactivity (PSR sort gate)” value is reported as “high polyreactivity”.

For “QVQLVESGGGLVQAGGSLRLSCAASGIIFQAYAKGWYRQAPGKERELVAAISYSGGSTYYAESVKGRFTISRDNAKNNVDLQMNRLKPEVTAVYYCAAELYRYWFDMYYWGQGTQVTVSS”, the “polyreactivity (PSR sort gate)” value is listed as “low polyreactivity”.

As for “QVQLVESGGGLVQAGGSLRLSCAASGIIFQPYAMGWYRQAPGKERELVAAITYSGDGTFYADSVKGRFTISRDNAKNTVYLQMNSLKPEDTAVYYCAAYPRDPYKEYDYWGQGTQVTVSS”, the “polyreactivity (PSR sort gate)” value is recorded as “low polyreactivity”.

Consider “QVQLVESGGGLVQAGGSLRLSCAASGIIFQRNDMGWYRQAHGKERELVANIRDGGITYADSVKGRFTISRDNAKNTVYLKMNSLKPEDTAVYYCARDDTSPGYGDQSSNASNYYWGQGTQVTVSS”, for which the “polyreactivity (PSR sort gate)” value was “low polyreactivity”.

Take “QVQLVESGGGLVQAGGSLRLSCAASGIIFQRNDMGWYRQAPGKERELDANIRDGGITYADSVKGRFTISRDNAKNTVYLQMNSLKPEDTAVYYCARYDTSPGYGDQSSNAAYYYWGQVTQVTVSS”: the “polyreactivity (PSR sort gate)” value is reported as “low polyreactivity”.

As for “QVQLVESGGGLVQAGGSLRLSCAASGIIFRGNALGWYRPAPGKERELVAAISRSGRTNYADSVKGRFTISRDNAKNTVYLQMNSLKPEDNAVYYCAVDKRYGRVVGRDYDYWGQGTQVTVSS”, the “polyreactivity (PSR sort gate)” value is listed as “high polyreactivity”.

For “QVQLVESGGGLVQAGGSLRLSCAASGIIFRGYAMGWYRQAPGKERELVAAISKSGGSTYYADSVKGRFTISRDNAKNTVYLQMNSLKPEDTAVYYCAADVYKQYGYYYWGQGTQVTVSS”, the “polyreactivity (PSR sort gate)” value is on record as “high polyreactivity”.

Turning to “QVQLVESGGGLVQAGGSLRLSCAASGIIFRGYAMRWYRQAPGKVREVVAVITSGGGTYYADSVKGRFTISRDNAKNNVYLQMNSLKPEETAVYYCNAASSLPGYDYWGQGTQVTVSS”, the “polyreactivity (PSR sort gate)” value is reported as “high polyreactivity”.

On to “QVQLVESGGGLVQAGGSLRLSCAASGIIFRLNAMGWYRQAPGKERELGAAIRRRGGSTYYADSVKGRFTISRDNAKNTVYLQMNSLKPEDTAVYYCAADAPWAYYEYDYWGQGTQVTVSS”, for which the “polyreactivity (PSR sort gate)” value was “low polyreactivity”.

In the case of “QVQLVESGGGLVQAGGSLRLSCAASGIIFRLNAMGWYRQAPGKERELVAAMRRRGGSTYYADSVKGRFTISRDNAKNTVYLQMNSLKPEDTAVYYCAKDPVTTFYKYDYWGQGTQVTVSS”, the “polyreactivity (PSR sort gate)” value is listed as “low polyreactivity”.

Consider “QVQLVESGGGLVQAGGSLRLSCAASGIIFRLNAMGWYRQAPGKVRELVAAIRRRGGSTYYADSVKGRFTISRDNAKNTVYLQMNSLKPEDTAVYYCAKDPHGSDFGYWGQGTQVTVSS”, for which the “polyreactivity (PSR sort gate)” value is recorded as “low polyreactivity”.

Consider “QVQLVESGGGLVQAGGSLRLSCAASGIIFRNYAMGWYRQAPGKEREFVAAISYRGGTTYYADSVKGRFTISRDNAKNTVYLQMNSLKPEDTAVYYCAAPYYLQQSRYYYWGQGTQVTVSS”, for which the “polyreactivity (PSR sort gate)” value was “high polyreactivity”.

As for “QVQLVESGGGLVQAGGSLRLSCAASGIIFRNYAMGWYRQAPGKERELVAAISSNGGSTYYADSVKGRFTISRDNAKNTVYLQMNSLKPEDTAVYYCAARHSLYGYWGQGTQVTVSS”, the “polyreactivity (PSR sort gate)” value was “high polyreactivity”.

With “QVQLVESGGGLVQAGGSLRLSCAASGIIFRPYAMGWYRQAPGKERELVAAITWSGTSTYYADSVKGRFTISRDNAKNTVYLQMNSLKPEDTAVYYCAARNVFQSVHLRGGYWGQGTQVTVSS”, the “polyreactivity (PSR sort gate)” value was “high polyreactivity”.

With “QVQLVESGGGLVQAGGSLRLSCAASGIIFRRYAMGWYRPEPGLVRELVAAISASGVRTYYADSVKGRFTISRDNAKNTVYFQMNSLKPEDTAVYYCAAATKRVEYEYWGQGTQVTVSS”, the “polyreactivity (PSR sort gate)” value was “high polyreactivity”.
